Substrate in data set [1]: Cc1ccccc1C1=C2C=CC(=N)C=C2[Si](C)(C)c2cc(NC(=O)[C@H](CC(=O)O)NC(=O)[C@@H](NC(=O)[C@H](CCC(=O)O)NC(=O)[C@H](CC(=O)O)NC(=O)OCc3ccccc3)C(C)C)ccc21
As to the kind of experiment: Activity of caspase3 after 10 hrs by FRET assay.

Substrate in data set [2]: Cc1ccccc1C1=C2C=CC(=N)C=C2[Si](C)(C)c2cc(NC(=O)[C@H](CC(=O)O)NC(=O)[C@@H](NC(=O)[C@H](CCC(=O)O)NC(=O)[C@H](CC(=O)O)NC(=O)OCc3ccccc3)C(C)C)ccc21
As to the kind of experiment: Ratio of Kcat to Km for caspase3 by FRET assay.

Our source for the Km, Vmax and kcat/Km values is ChEMBL document CHEMBL2029331, “Red fluorescent scaffold for highly sensitive protease activity probes” (Bioorg Med Chem Lett, 2012).

B1: Caspase-3 (Homo sapiens), P42574 (protein)
chain: MENTENSVDSKSIKNLEPKIIHGSESMDSGISLDNSYKMDYPEMGLCIIINNKNFHKSTGMTSRSGTDVDAANLRETFRNLKYEVRNKNDLTREEIVELMRDVSKEDHSKRSSFVCVLLSHGEEGIIFGTNGPVDLKKITNFFRGDRCRSLTGKPKLFIIQACRGTELDCGIETDSGVDDDMACHKIPVEADFLYAYSTAPGYYSWRNSKDGSWFIQSLCAMLKQYADKLEFMHILTRVNRKVATEFESFSFDATFHAKKQIPCIVSMLTKELYFYH
Regarding B1, in data set [1], the Michaelis constant (Km) was found to be 1.2 µM and the Vmax was determined as 6.8 ×10⁻⁸ M/s. In data set [2], the kcat/Km is 3.1 ×10⁶ /M/s.
